This data set in a line: yeast display, Sf9 membrane polyspecificity reagent, FACS + sequencing; frameworks hold sequencing errors. In outline:
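Synthetic nanobody libraries on Saccharomyces cerevisiae BJ5465 were galactose-induced for 36–48 hours, stained 1 hour at 4 °C with 10% biotinylated, detergent-solubilized Sf9 membrane reagent and enriched on streptavidin microbeads. FACS then separated cells into low and high (top ~1%) gates by anti-HA (expression) and streptavidin (reagent binding) fluorescence. Genes were colony-PCR amplified, MiSeq 2 × 250 sequenced and CDR-length filtered. A clone's polyreactivity label is that of its gate of origin.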
Turning to “QVQLEESGGGLVQAGGSLRLSCAASGRIFGGYAMGWYRQAPGKERELVAAISRNGGNTYYADSVKGRFTISRDNAKNTVYLQMNSLKPEDTAVYYCAATYDGTYDYWGQGTQVTVSS”, the “polyreactivity (PSR sort gate)” value was “high polyreactivity”.

For the sequence “QVQLEESGGGLVQAGGSLRLSCAASGRIFKRYAMGWYRQAPGKERELVAAITWSGTRTYYADSVKGRFTISRDNAKNTVYLQMNSLKPEDTAVYYCAADQKYHQRPSEYGYWGQGTQVTVSS”, the “polyreactivity (PSR sort gate)” value is “high polyreactivity”.

Turning to “QVQLEESGGGLVQAGGSLRLSCAASGRIFPYYTMGWYRQAPGKERELVAAISWSGGSTYYADSVKGRFTISRDNAKNTVYLQMNSLKPEDTAVYYCNVRKVYRYQYRFEYWGQGTQVTVSS”, the “polyreactivity (PSR sort gate)” value was “high polyreactivity”.

As for “QVQLEESGGGLVQAGGSLRLSCAASGRIFSYNAMGWSIPAPGKERELVAAISYSGGRTYYADSVKGRFTISRDNAKNTVYLQMNSLKPEDTAVYYCAAKRKIRGYGPYEYWGQGTQVTVSS”, the “polyreactivity (PSR sort gate)” value is recorded as “high polyreactivity”.

Take “QVQLEESGGGLVQAGGSLRLSCAASGRIFYLNAIGWYRQAPRKATELVAAINTSGDSTYYADSVKGRFTISRDNAKNTVYLQMNSLKPEDTAVYYCAAFGIGPDQFIYDYWGQGTKVTVSS”: the “polyreactivity (PSR sort gate)” value is “low polyreactivity”.

For the sequence “QVQLEESGGGLVQAGGSLRLSCAASGRIFYYYTMGWYRQAPGKERELVAAISWGGVNTDYADSVKGRFTISRDNAKNTVYLQMNSLKPEDTAVYYCAAGRWSVGTYDYWGQGTQVTVSS”, the “polyreactivity (PSR sort gate)” value is recorded as “low polyreactivity”.

For the sequence “QVQLEESGGGLVQAGGSLRLSCAASGRNFLYNAMGWYRQAPGKERELVAAITASGGTTYYADSVKGRFTISRDNAKNNVYLQMNSLKPEDTAVYYCNAYSYSGERYYWGQGTQVTVSS”, the “polyreactivity (PSR sort gate)” value is “high polyreactivity”.

As for “QVQLEESGGGLVQAGGSLRLSCAASGRTFDRYAMGWYRQAPGKERELVAAITWSGGRTYYADSVKGRFTISRDNPKNTVYLQMNSLKPEDTAVYYCATAYYYHGGYYYPYDVDYWGQGTQVTVSS”, the “polyreactivity (PSR sort gate)” value is “low polyreactivity”.

On to “QVQLEESGGGLVQAGGSLRLSCAASGRTFGRNAMGWYRQAPGERELVAVISRGGSTYYADSVKGRFTISRDNAKNSVYLQMNSLIPEDTAVYYCNADTVYTRTAPYDYWGQGTQVTVSS”, for which the “polyreactivity (PSR sort gate)” value was “low polyreactivity”.

In the case of “QVQLEESGGGLVQAGGSLRLSCAASGRTFITYAMGWYRQAPGKVRELVASITSNGGRTYYADSVKGRFKISRDNAKNTVYLQMNSLKPEYTAVYYCSAGTRSRAPYYRTSVDTYGYWGQGTQVTVSS”, the “polyreactivity (PSR sort gate)” value was “low polyreactivity”.

In the case of “QVQLEESGGGLVQAGGSLRLSCAASGRTFNKNAMGWYRQAPGKERELVAAISYSGGRTYYADSVKGRFTISRDNAKNTVYLQMNSLKPEDTAVYYCAAWGSSYSFDYWGQGTQVTVSS”, the “polyreactivity (PSR sort gate)” value is “high polyreactivity”.

Take “QVQLEESGGGLVQAGGSLRLSCAASGRTFSGYAMGSYRQAPGKDRELVAAITRRGGTTYYADSVKGRFTISRDNAKNTVYLQMNSLKPEDTAVYYCAAAKPRVISQKIIYYYWGQGTQVTVSS”: the “polyreactivity (PSR sort gate)” value was “high polyreactivity”.

For “QVQLEESGGGLVQAGGSLRLSCAASGRTFVWYAMGWYRQAPGKERELVAAISRSGGSTYYADSVKGRFTISRDNAKNTVYLQMNSLKPEDTAVYYCAAEFYIAPPYDYWGQGTQVTVSS”, the “polyreactivity (PSR sort gate)” value is given as “high polyreactivity”.

For “QVQLEESGGGLVQAGGSLRLSCAASGRTFWDNARGWNRQAPGKERELVATITSGDSTNYAASVKGRFTISRDNAKNTVYLQMNSLKPEDTAVYYCARVIVFDAYEFDYWGQGTQVTVSS”, the “polyreactivity (PSR sort gate)” value is “low polyreactivity”.

“QVQLEESGGGLVQAGGSLRLSCAASGRTFYRYAMGWYRQAPGKERELVATISSRGTSTYYADSVKGRFTISRDNAKNTVYLQMNSLKPEDTAVYYCAVRGYAAGRHGYDYWGQGTQVTVSS”: the “polyreactivity (PSR sort gate)” value is reported as “high polyreactivity”.

In the case of “QVQLEESGGGLVQAGGSLRLSCAASGRTINGNTMGWYRQAPGKERELVAVIDWSGGSTYYADSVKGRFTISRDNAKNTVYLQMNSLKPEDTAVYYWNAETRDPILYGEYDYWGQGTQVTVSS”, the “polyreactivity (PSR sort gate)” value is on record as “low polyreactivity”.

Turning to “QVQLEESGGGLVQAGGSLRLSCAASGRTLGYNAMGWYRQAPGKERELVAAISYGGGGTYYADSVKGRFTISRDNAKNTVYLQMNSLKPEDSAVYYCAKPRAFVGYNHWGQGTQVSVSS”, the “polyreactivity (PSR sort gate)” value is “low polyreactivity”.

On to “QVQLEESGGGLVQAGGSLRLSCAASGSIFAVYAKGWYRQAPGKEREFVARISWGGGRTYYADSVKGRFTISRDNAKNTVYLQMNSLKPEDTAVYYCAATFRARPRENYWGQGTQVTVSS”, for which the “polyreactivity (PSR sort gate)” value is given as “high polyreactivity”.

As to “QVQLEESGGGLVQAGGSLRLSCAASGSIFDPNAMGWYRKAPGKERELVADIDSSDGSTYYADSVKGRFTISRDNAKNTVYLQMNSLKPEDTAVYYCNARYGGWVWSTYDHWGQGTQVTVSS”, the “polyreactivity (PSR sort gate)” value was “low polyreactivity”.

Turning to “QVQLEESGGGLVQAGGSLRLSCAASGSIFEWNDMGWSRQAPGKEREFVAAITSTDDGTYYADSVKGRFTISRDNAKNTVYLQMNSLKPEDTAVYYCAKRAWGSPYGYWGQGTQVTVSS”, the “polyreactivity (PSR sort gate)” value was “low polyreactivity”.

For the sequence “QVQLEESGGGLVQAGGSLRLSCAASGSIFIANAMGWYRQAPGKERELVAVINWGDGSTYADSVKGRFTISRDNAKNTVYLQMNSLKPEDTAVYYCNAPDEVNDVRYDYWGQGTQVTVSS”, the “polyreactivity (PSR sort gate)” value was “low polyreactivity”.

As to “QVQLEESGGGLVQAGGSLRLSCAASGSIFQINAMGWYRQAPGKERELVAAITRGGGTTYYADSVKGRFTISRDNAKNTVYLQMNSLKPEDTAVYYCAADFERRRYDYWGQGTQVTVSS”, the “polyreactivity (PSR sort gate)” value is reported as “low polyreactivity”.

For “QVQLEESGGGLVQAGGSLRLSCAASGSIFRYNAMGWYRQAPGKERELVAAITSGDSTYYADSVKGRFTISRDNAKNTVYLQMNSLKPEDTAVYYCAADLRYIYWSYYYWGQGTQVTVSS”, the “polyreactivity (PSR sort gate)” value is given as “low polyreactivity”.

As for “QVQLEESGGGLVQAGGSLRLSCAASGSIFSYYVMGWYRQAPGKERELVARNSKRGVTTYYADSVKGRFTISRDNAKNTVYLQMNSLKPEDTAVYFCAASVWRDRIYRYEYWGQGTQVTVSS”, the “polyreactivity (PSR sort gate)” value is given as “high polyreactivity”.

As to “QVQLEESGGGLVQAGGSLRLSCAASGSIFVYYRMGWYRQAPGKERELVAAISSGGSTHYADSVKGRFTISRDNAKNTVYLQMNSLKPEDTAFYYRNDRAYGNGMGTGYFGKHRYDYWGQGTQVTVSS”, the “polyreactivity (PSR sort gate)” value is listed as “low polyreactivity”.

With “QVQLEESGGGLVQAGGSLRLSCAASGSIFYYYVMGWCRQAPGKERELVAAISSGGGTNYADSVKGRFTISRDNAKNTVYLQMNSLKPEDTAVYYCAKASAYGLANDYDYWGQGTQVTVSS”, the “polyreactivity (PSR sort gate)” value is “low polyreactivity”.

For “QVQLEESGGGLVQAGGSLRLSCAASGSILFFNAKGWYRQAPGKERELVADISTGGSTYYADSVKGRFTISRDNAKNTVYLQMNSLKPEDTAVYYCNADYYYFFYTLDYWGQGTQVTVSS”, the “polyreactivity (PSR sort gate)” value is listed as “high polyreactivity”.

Turning to “QVQLEESGGGLVQAGGSLRLSCAASGSILIYNAMGLYRQATGKERELVAGISRRGASTYYADSVKGRFTISRDYAKNTVYLQMNSLKPEDTAVYYCATRKLRTRGYDYGYWGQGTQVTVSS”, the “polyreactivity (PSR sort gate)” value is on record as “low polyreactivity”.

Regarding “QVQLEESGGGLVQAGGSLRLSCAASGSILLGYDMGWYRTAPGKERELVASIDTNGGSPYYADSVKGRFTISRDNAKNTVYLQSNSLKPEDTAVYYCNADPSFVGGTYDYWGQGTQVTVSS”, the “polyreactivity (PSR sort gate)” value was “low polyreactivity”.

As for “QVQLEESGGGLVQAGGSLRLSCAASGSTFFLYAMGWYRQAPGKERELVAAITYTDGDTYYADSVKGRFTISRDNAKNTVYLQMNSLKPEDTAVYYCNAGGDEPVYGSGYDYWGQGTQVTVSS”, the “polyreactivity (PSR sort gate)” value is “low polyreactivity”.

As for “QVQLEESGGGLVQAGGSLRLSCAASGSTFGRNTLGSYRPAPGKERELVAVISRRGGITTYADSVKGRFTISRENAKNTVYLQMNSLKPVDTAVYYCNAVSRVYNKGQYGYWGQGTQVSVSS”, the “polyreactivity (PSR sort gate)” value is given as “high polyreactivity”.

Regarding “QVQLEESGGGLVQAGGSLRLSCAASGSTFLLYAMGRYRQAPGKEMEMVATISWGGDGTYYADSVKGRFTISRDNAKNTVYLQMNSLIPEDTAVYYCAAESYLVQFYFLYYYWGQGTQVTVSS”, the “polyreactivity (PSR sort gate)” value is reported as “low polyreactivity”.

In the case of “QVQLEESGGGLVQAGGSLRLSCAASGSTFQLYAMGWYRPAPGKERELVAGISRDGSTYYADSVKGRFTISRDNAKNTVFLQMNSLKPEDTAVYYCAAKYYGNKRDLYYWGQGTQVTVSS”, the “polyreactivity (PSR sort gate)” value was “low polyreactivity”.

Consider “QVQLEESGGGLVQAGGSLRLSCAASGSTFSTYSMAWYRHAPGKERELVARITRSDTGTYYADSVKGRFTISRDYAKNTVYLQLNSLKPEDTAVYDCAADGWYDDSGWDYGYDYWGQGTQVTVSS”, for which the “polyreactivity (PSR sort gate)” value was “low polyreactivity”.

For the sequence “QVQLEESGGGLVQAGGSLRLSCAASGSTFTEYVMGWYRHATGKERELVAAIRSNGGSTYYADSVKGRFTISRDNAKNTVYLQMHSLNPEDTAVYYCNRVYSRRTYNSPLYDDWGQGTQVTVSS”, the “polyreactivity (PSR sort gate)” value is “high polyreactivity”.

For “QVQLEESGGGLVQAGGSLRLSCAASGSTFTGYAMGWYRQAPGKERELVAAIPISGGRTFYADSVKGRFTISRDNAKNTVYLQMNSLKPEDTAFYYCAAYLRGSKYSFDYWGQGTQVTVSS”, the “polyreactivity (PSR sort gate)” value was “high polyreactivity”.

“QVQLEESGGGLVQAGGSLRLSCAASGSTFVPNDMGGYRQAPGKERELVAAITDSGGSTYYADSVKGRFTISRDNAKNTVYLQMNSLKPEDTAVYYCAAEKAEWYYHTVWHFARGEYWGQGTQVTVSS”: the “polyreactivity (PSR sort gate)” value is given as “low polyreactivity”.

As for “QVQLEESGGGLVQAGGSLRLSCAASGSTFWLNAMGWYRQAPGKESELVASITWSGDSTYYADSVKGRFTISRDNAKNTVYLQMNSLKPEDTAVYYCNTDSILGQIWGATDDYWGQGTQVTVSS”, the “polyreactivity (PSR sort gate)” value is recorded as “low polyreactivity”.

Take “QVQLEESGGGLVQAGGSLRLSCAASGSTFWRYAMGWYRQAPGKERELVAAISWNGGSTYYADSVKGRFTISRDNAKNTDYLQMNSLKPEDTSVFYCNRRYPFYSRYNNDYWGQGTQVTVSS”: the “polyreactivity (PSR sort gate)” value is “high polyreactivity”.

In the case of “QVQLEESGGGLVQAGGSLRLSCAASGSTFYANTMGSYRQAPGKERELVATISIDGSTNYADSVKGRFTISRDNAKNTVYLQMNTLKPEDTAVYYCNADVYSVLYGYWGQGTQVTVSS”, the “polyreactivity (PSR sort gate)” value is reported as “low polyreactivity”.

Turning to “QVQLEESGGGLVQAGGSLRLSCAASGSTFYGYAMGWNRQAPGKERELVAAITRSGGSTYYADSVKGRFTISRDNAKNTVYLQMNSLKPEDTEVYYCNKYGYKGGVGYDYWGQGTQVTVSS”, the “polyreactivity (PSR sort gate)” value is listed as “high polyreactivity”.

For the origin of these results see the nanobody polyreactivity screen of Harvey et al. (2022).
